Laboratory results reported in the supplement of paper PMC9112550, “Optimization of the antimicrobial peptide Bac7 by deep mutational scanning” (BMC Biology, 2022).

tested on: Escherichia coli TOP10; test: shrunken log2 fold change of peptide-encoding DNA abundance (4.5 h post-induction vs induction); higher = less antimicrobial activity (less host growth inhibition); conditions: time post-induction: 4.5 h; library: site-saturation at positions 5, 18, 19, 20
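Note: peptides expressed intracellularly from a pBAD plasmid library in pooled LB shake-flask culture, induced with 0.3% L-arabinose, DNA abundance read by NGS, three biological replicates, DESeq2 with apeglm shrinkage.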

| Sequence | shrunken log2 fold change |
| --- | --- |
| RRIRGRPPRLPRPRPRPMRKPRP | 1.37 |
| RRIRGRPPRLPRPRPRPMSFPRP | 0.308 |
| RRIRGRPPRLPRPRPRPMTDPRP | 0.603 |
| RRIRGRPPRLPRPRPRPMVDPRP | 0.0455 |
| RRIRGRPPRLPRPRPRPMVTPRP | 1.29 |
| RRIRGRPPRLPRPRPRPMWMPRP | 0.118 |
| RRIRGRPPRLPRPRPRPMYGPRP | -0.107 |
| RRIRGRPPRLPRPRPRPNAGPRP | 0.552 |
| RRIRGRPPRLPRPRPRPNASPRP | 0.496 |
| RRIRGRPPRLPRPRPRPNCTPRP | 0.172 |
| RRIRGRPPRLPRPRPRPNDCPRP | -0.04 |
| RRIRGRPPRLPRPRPRPNDEPRP | 0.482 |
| RRIRGRPPRLPRPRPRPNDQPRP | 0.265 |
| RRIRGRPPRLPRPRPRPNDRPRP | 0.288 |
| RRIRGRPPRLPRPRPRPNEIPRP | 0.559 |
| RRIRGRPPRLPRPRPRPNGFPRP | 0.0031 |
| RRIRGRPPRLPRPRPRPNGNPRP | 0.0103 |
| RRIRGRPPRLPRPRPRPNHEPRP | 0.0434 |
| RRIRGRPPRLPRPRPRPNHFPRP | -0.0611 |
| RRIRGRPPRLPRPRPRPNHWPRP | 0.309 |
| RRIRGRPPRLPRPRPRPNIQPRP | 0.398 |
| RRIRGRPPRLPRPRPRPNKWPRP | 0.0346 |
| RRIRGRPPRLPRPRPRPNLGPRP | 0.191 |
| RRIRGRPPRLPRPRPRPNMPPRP | -0.317 |
| RRIRGRPPRLPRPRPRPNNGPRP | -0.363 |

| Sequence | shrunken log2 fold change |
| --- | --- |
| RRIRGRPPRLPRPRPRPNPSPRP | 0.294 |
| RRIRGRPPRLPRPRPRPNRVPRP | 0.0309 |
| RRIRGRPPRLPRPRPRPNSGPRP | 0.00625 |
| RRIRGRPPRLPRPRPRPNSSPRP | -0.00499 |
| RRIRGRPPRLPRPRPRPNSVPRP | -0.0052 |
| RRIRGRPPRLPRPRPRPNTNPRP | 0.256 |
| RRIRGRPPRLPRPRPRPNVKPRP | 0.292 |
| RRIRGRPPRLPRPRPRPNVPPRP | 0.0564 |
| RRIRGRPPRLPRPRPRPNVRPRP | 0.265 |
| RRIRGRPPRLPRPRPRPPADPRP | 1.59 |
| RRIRGRPPRLPRPRPRPPAEPRP | 1.64 |
| RRIRGRPPRLPRPRPRPPDKPRP | 1.17 |
| RRIRGRPPRLPRPRPRPPEPPRP | 0.397 |
| RRIRGRPPRLPRPRPRPPESPRP | 0.873 |
| RRIRGRPPRLPRPRPRPPEWPRP | 1.13 |
| RRIRGRPPRLPRPRPRPPGWPRP | 1.04 |
| RRIRGRPPRLPRPRPRPPHQPRP | 0.806 |
| RRIRGRPPRLPRPRPRPPKHPRP | 0.567 |
| RRIRGRPPRLPRPRPRPPKIPRP | 0.835 |
| RRIRGRPPRLPRPRPRPPKYPRP | 0.0508 |
| RRIRGRPPRLPRPRPRPPLHPRP | 0.501 |
| RRIRGRPPRLPRPRPRPPMNPRP | 0.464 |
| RRIRGRPPRLPRPRPRPPNCPRP | 0.266 |
| RRIRGRPPRLPRPRPRPPPRPRP | 1.69 |
| RRIRGRPPRLPRPRPRPPRAPRP | 1.25 |

| Sequence | shrunken log2 fold change |
| --- | --- |
| RRIRGRPPRLPRPRPRPPRNPRP | 1.1 |
| RRIRGRPPRLPRPRPRPPSPPRP | 1.01 |
| RRIRGRPPRLPRPRPRPPTCPRP | 0.172 |
| RRIRGRPPRLPRPRPRPPTEPRP | 1.04 |
| RRIRGRPPRLPRPRPRPPVKPRP | 0.678 |
| RRIRGRPPRLPRPRPRPPWEPRP | 0.528 |
| RRIRGRPPRLPRPRPRPPWVPRP | 0.753 |
| RRIRGRPPRLPRPRPRPPWWPRP | 0.953 |
| RRIRGRPPRLPRPRPRPPYLPRP | -0.0342 |
| RRIRGRPPRLPRPRPRPPYVPRP | -0.21 |
| RRIRGRPPRLPRPRPRPQCHPRP | 0.48 |
| RRIRGRPPRLPRPRPRPQCTPRP | 0.085 |
| RRIRGRPPRLPRPRPRPQEFPRP | 0.27 |
| RRIRGRPPRLPRPRPRPQESPRP | -0.0432 |
| RRIRGRPPRLPRPRPRPQFGPRP | 0.0436 |
| RRIRGRPPRLPRPRPRPQGQPRP | 0.414 |
| RRIRGRPPRLPRPRPRPQHDPRP | -0.000778 |
| RRIRGRPPRLPRPRPRPQHNPRP | -0.186 |
| RRIRGRPPRLPRPRPRPQILPRP | -0.0843 |
| RRIRGRPPRLPRPRPRPQKCPRP | 0.122 |
| RRIRGRPPRLPRPRPRPQKNPRP | 0.368 |
| RRIRGRPPRLPRPRPRPQKWPRP | 0.0681 |
| RRIRGRPPRLPRPRPRPQKYPRP | -0.0606 |
| RRIRGRPPRLPRPRPRPQMLPRP | -0.0638 |
| RRIRGRPPRLPRPRPRPQMNPRP | 0.355 |
